Experimental data taken from patent publication US20220251232A1 (INSERM INSTITUT NATIONAL DE LA SANT ET DE LA RECHERCHE M …, published 2022).
Positions count from the first letter of the chain named.

T1: human CD25 (Interleukin-2 receptor alpha chain) (human, UniProt P01589 22-272)
T1 sequence (looked up): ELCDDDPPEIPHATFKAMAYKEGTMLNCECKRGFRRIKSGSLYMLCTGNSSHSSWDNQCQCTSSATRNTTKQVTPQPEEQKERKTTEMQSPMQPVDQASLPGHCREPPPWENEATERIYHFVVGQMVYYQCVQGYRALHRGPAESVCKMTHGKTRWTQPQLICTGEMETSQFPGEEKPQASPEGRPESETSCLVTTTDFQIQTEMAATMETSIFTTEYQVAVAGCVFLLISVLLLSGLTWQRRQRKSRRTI

B1: ALD25H2 anti-CD25 antibody (antibody, V domains shown)
VH: EVQLVESGGGLVQPGRSMKLSCAASGFTFSNHAMAWVRQAPKKGLEWVAYISYDGDNTYYRDSVKGRFTISRDNAKSTLYLQIDSLRSEDTATYYCTTGGNSGYDWGQGVMVTVSS
VL: DIQMTQSPSFLSASVGDRVTINCKASQNVNKFVNWYQQKLGEAPRRLIYGTNSLQTGIPSRFSGSGSGTDYTLTISSLQPEDVATYFCQQYSSWPWTFGGGTKLELK
B2: ALD25H1 anti-CD25 antibody (antibody, V domains shown)
VH: B1 VH with T28P, N31D, E46Q, K76R, Y80F, I83M
VL: B1 VL with V33L
B3: ALD25H4 anti-CD25 antibody (antibody, V domains shown)
VH: B1 VH with A24V, K76Q, I83M
VL: B1 VL with A25G, V33L, S92T
B4: 7G7B6 monoclonal antibody (IL-2 non-competitive anti-CD25 antibody) (antibody, V domains shown)
VH: EVQLVESGGDLVQPRGSLKLSCAASGFTFSSYGMSWVRQTPDKRLELVATINGYGDTTYYPDSVKGRFTISRDNAKNTLYLQMSSLKSEDTAMYFCARDRDYGNSYYYALDYWGQGTSVTVSS
VL: QIVLSQSPAILSASPGERVTMTCRASSSVSFMHWLQQKPGSSPKPWIYATSNLASGVSARFSGSGSGTSYSLTITRVEAEDAATYYCQQWSSNPPAFGGGTKLEIK

Target: T1, human CD25 (Interleukin-2 receptor …)
Test: cell-based or functional assay

Row | Binder | IL-2 induced T-cell proliferation, Mean (control = 100)
1 | B1 | 81.7
2 | B2 | 78.1
3 | B3 | 73
4 | B4 | 55
